Measured values from paper PMC7555452, “Functional Characterization of a Putative RNA Demethylase ALKBH6 in Arabidopsis Growth and Abiotic Stress Responses”.

T1: ALKBH6 (Arabidopsis thaliana, UniProt Q9SUP1 1-241)
T1 sequence: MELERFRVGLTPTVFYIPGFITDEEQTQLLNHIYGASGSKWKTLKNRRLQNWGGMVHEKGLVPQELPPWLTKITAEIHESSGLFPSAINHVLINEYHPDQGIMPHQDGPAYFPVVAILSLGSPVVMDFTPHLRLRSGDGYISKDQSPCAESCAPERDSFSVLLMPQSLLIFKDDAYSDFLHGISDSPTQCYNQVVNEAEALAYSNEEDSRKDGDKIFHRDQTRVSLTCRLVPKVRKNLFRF

B1: SOS3 RNA m6A (ssRNA)
RNA: GAAUCCGAACUAGUUCU
modifications: m6A at position 9
B2: SOS3 RNA unmodified (ssRNA)
RNA: GAAUCCGAACUAGUUCU
B3: MAT2A RNA unmodified (ssRNA)
RNA: CGUAGGCUACAGAGAAGCCUU
B4: MAT2A RNA m6A (ssRNA)
RNA: CGUAGGCUACAGAGAAGCCUU
modifications: m6A at position 11
B5: m5C motif RNA m5C (ssRNA)
RNA: GGACGCUUCUUCGACCU
modifications: m5C at position 9
B6: m5C motif RNA unmodified (ssRNA)
RNA: GGACGCUUCUUCGACCU

What follows are binders tested against T1, ALKBH6 (assay: EMSA; 3, 5, 7 uM protein; 10 mM Tris-HCl pH 8.0, 150 mM NaCl, 1.0 mM EDTA, 10% glycerol; 5.0 pmol RNA in 20 uL, on ice 30 min; 6% native PAGE, 0.25x TBE, 4 °C). Settings: protein: recombinant; tags: His-TF (pCold TF) fusion, cleaved with HRV 3C protease; Ni-NTA purified; label: 5'-fluorescein.
B1: binds. B2: binds. B3: binds. B4: binds. B5: binds. B6: binds.
